Results published in US20180155451A1 (published 2018).

B1: GpH7-A5/GpH7-B3 variant S324_03V/GpL16-k0 (He Ab) (antibody, human IgG1, kappa)
heavy 1: not shown
heavy 2: not shown
light: DIVMTQSPLSLPVTPGEPASISCQASESLVHSNRNTYLHWYLQKPGQSPQLLIYKVSNRFSGVPDRFSGSGSGTDFTLKISRVEAEDVGVYYCSQNTHVPPTFGQGTKVEIERTVAAPSVFIFPPSDEQLKSGTASVVCLLNNFYPREAKVQWKVDNALQSGNSQESVTEQDSKDSTYSLSSTLTLSKADYEKHKVYACEVTHQGLSSPVTKSFNRGEC
notes: Heterodimerized anti-glypican-3 IgG1; the mutation stands in the GpH7-B3 chain only
B2: GpH7-A5/GpH7-B3 variant S324_07I/GpL16-k0 (He Ab) (antibody, human IgG1, kappa)
heavy 1: not shown
heavy 2: not shown
light: DIVMTQSPLSLPVTPGEPASISCQASESLVHSNRNTYLHWYLQKPGQSPQLLIYKVSNRFSGVPDRFSGSGSGTDFTLKISRVEAEDVGVYYCSQNTHVPPTFGQGTKVEIERTVAAPSVFIFPPSDEQLKSGTASVVCLLNNFYPREAKVQWKVDNALQSGNSQESVTEQDSKDSTYSLSSTLTLSKADYEKHKVYACEVTHQGLSSPVTKSFNRGEC
notes: as for B1
B3: GpH7-A5/GpH7-B3 variant Y300_03V/GpL16-k0 (He Ab) (antibody, human IgG1, kappa)
heavy 1: not shown
heavy 2: not shown
light: DIVMTQSPLSLPVTPGEPASISCQASESLVHSNRNTYLHWYLQKPGQSPQLLIYKVSNRFSGVPDRFSGSGSGTDFTLKISRVEAEDVGVYYCSQNTHVPPTFGQGTKVEIERTVAAPSVFIFPPSDEQLKSGTASVVCLLNNFYPREAKVQWKVDNALQSGNSQESVTEQDSKDSTYSLSSTLTLSKADYEKHKVYACEVTHQGLSSPVTKSFNRGEC
notes: as for B1
B4: GpH7-A5/GpH7-B3 variant Y300_06M/GpL16-k0 (He Ab) (antibody, human IgG1, kappa)
heavy 1: not shown
heavy 2: not shown
light: DIVMTQSPLSLPVTPGEPASISCQASESLVHSNRNTYLHWYLQKPGQSPQLLIYKVSNRFSGVPDRFSGSGSGTDFTLKISRVEAEDVGVYYCSQNTHVPPTFGQGTKVEIERTVAAPSVFIFPPSDEQLKSGTASVVCLLNNFYPREAKVQWKVDNALQSGNSQESVTEQDSKDSTYSLSSTLTLSKADYEKHKVYACEVTHQGLSSPVTKSFNRGEC
notes: as for B1
B5: GpH7-A5/GpH7-B3 variant Y300_01G/GpL16-k0 (He Ab) (antibody, human IgG1, kappa)
heavy 1: not shown
heavy 2: not shown
light: DIVMTQSPLSLPVTPGEPASISCQASESLVHSNRNTYLHWYLQKPGQSPQLLIYKVSNRFSGVPDRFSGSGSGTDFTLKISRVEAEDVGVYYCSQNTHVPPTFGQGTKVEIERTVAAPSVFIFPPSDEQLKSGTASVVCLLNNFYPREAKVQWKVDNALQSGNSQESVTEQDSKDSTYSLSSTLTLSKADYEKHKVYACEVTHQGLSSPVTKSFNRGEC
notes: as for B1
B6: GpH7-A5/GpH7-B3 variant Y300_07I/GpL16-k0 (He Ab) (antibody, human IgG1, kappa)
heavy 1: not shown
heavy 2: not shown
light: DIVMTQSPLSLPVTPGEPASISCQASESLVHSNRNTYLHWYLQKPGQSPQLLIYKVSNRFSGVPDRFSGSGSGTDFTLKISRVEAEDVGVYYCSQNTHVPPTFGQGTKVEIERTVAAPSVFIFPPSDEQLKSGTASVVCLLNNFYPREAKVQWKVDNALQSGNSQESVTEQDSKDSTYSLSSTLTLSKADYEKHKVYACEVTHQGLSSPVTKSFNRGEC
notes: as for B1
B7: GpH7-A5/GpH7-B3 variant Y300_02A/GpL16-k0 (He Ab) (antibody, human IgG1, kappa)
heavy 1: not shown
heavy 2: not shown
light: DIVMTQSPLSLPVTPGEPASISCQASESLVHSNRNTYLHWYLQKPGQSPQLLIYKVSNRFSGVPDRFSGSGSGTDFTLKISRVEAEDVGVYYCSQNTHVPPTFGQGTKVEIERTVAAPSVFIFPPSDEQLKSGTASVVCLLNNFYPREAKVQWKVDNALQSGNSQESVTEQDSKDSTYSLSSTLTLSKADYEKHKVYACEVTHQGLSSPVTKSFNRGEC
notes: as for B1
B8: GpH7-A5/GpH7-B3 variant Y300_08L/GpL16-k0 (He Ab) (antibody, human IgG1, kappa)
heavy 1: not shown
heavy 2: not shown
light: DIVMTQSPLSLPVTPGEPASISCQASESLVHSNRNTYLHWYLQKPGQSPQLLIYKVSNRFSGVPDRFSGSGSGTDFTLKISRVEAEDVGVYYCSQNTHVPPTFGQGTKVEIERTVAAPSVFIFPPSDEQLKSGTASVVCLLNNFYPREAKVQWKVDNALQSGNSQESVTEQDSKDSTYSLSSTLTLSKADYEKHKVYACEVTHQGLSSPVTKSFNRGEC
notes: as for B1

What was measured:
[1] = target: T1, FcγRIa extracellular domain with C-terminal His tag (human, UniProt P12314 16-292); test: SPR (Biacore), antibody captured on antigen-peptide chip, FcγR as analyte; relative binding
T1 construct: extracellular domain; Expressed in FreeStyle293 cells; analyte in the Biacore assay; also called FcgRI; 1a; not shown: His tag at the C terminus
T1 sequence (P12314 16-292): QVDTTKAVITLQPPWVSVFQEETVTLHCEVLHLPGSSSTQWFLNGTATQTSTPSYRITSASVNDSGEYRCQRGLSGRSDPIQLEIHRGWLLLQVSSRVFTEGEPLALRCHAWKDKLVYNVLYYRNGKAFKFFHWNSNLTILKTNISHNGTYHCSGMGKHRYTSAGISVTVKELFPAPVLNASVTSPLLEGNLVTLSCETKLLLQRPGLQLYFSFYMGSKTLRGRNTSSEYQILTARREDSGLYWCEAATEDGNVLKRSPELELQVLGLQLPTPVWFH

[2] = target: T2, FcγRIIb extracellular domain with C-terminal His tag (human, UniProt P31994 43-217); test: as above
T2 construct: extracellular domain; Expressed in FreeStyle293 cells; analyte in the Biacore assay; also called FcgRIIb; 2b; not shown: His tag at the C terminus
T2 sequence (looked up): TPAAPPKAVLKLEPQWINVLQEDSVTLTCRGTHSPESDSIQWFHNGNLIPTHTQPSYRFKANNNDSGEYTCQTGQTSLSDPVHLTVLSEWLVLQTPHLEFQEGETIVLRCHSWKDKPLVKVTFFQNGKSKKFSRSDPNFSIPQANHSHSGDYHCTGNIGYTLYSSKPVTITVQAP

| Binder | He/Con_1a [1] | He/Con_2b [2] |
| --- | --- | --- |
| B1 | 104 % of GpH7-A5/GpH7-B3/GpL16-k0 (=100) | 97.8 % of GpH7-A5/GpH7-B3/GpL16-k0 (=100) |
| B2 | 102 % of GpH7-A5/GpH7-B3/GpL16-k0 (=100) | 95.7 % of GpH7-A5/GpH7-B3/GpL16-k0 (=100) |
| B3 | 117 % of GpH7-A5/GpH7-B3/GpL16-k0 (=100) | 73.9 % of GpH7-A5/GpH7-B3/GpL16-k0 (=100) |
| B4 | 112 % of GpH7-A5/GpH7-B3/GpL16-k0 (=100) | 84.3 % of GpH7-A5/GpH7-B3/GpL16-k0 (=100) |
| B5 | 116 % of GpH7-A5/GpH7-B3/GpL16-k0 (=100) | 48.4 % of GpH7-A5/GpH7-B3/GpL16-k0 (=100) |
| B6 | 108 % of GpH7-A5/GpH7-B3/GpL16-k0 (=100) | 74.5 % of GpH7-A5/GpH7-B3/GpL16-k0 (=100) |
| B7 | 112 % of GpH7-A5/GpH7-B3/GpL16-k0 (=100) | 69.2 % of GpH7-A5/GpH7-B3/GpL16-k0 (=100) |
| B8 | 113 % of GpH7-A5/GpH7-B3/GpL16-k0 (=100) | 73.6 % of GpH7-A5/GpH7-B3/GpL16-k0 (=100) |
